Source: IntAct's records for PubMed 19359471

B1: Anterior gradient protein 2 homolog (Homo sapiens), O95994 (parent)
chain: MEKIPVSAFLLLVALSYTLARDTTVKPGAKKDTKDSRPKLPQTLSRGWGDQLIWTQTYEEALYKSKTSNKPLMIIHHLDECPHSQALKKVFAENKEIQKLAEQFVLLNLVYETTDKHLSPDGQYVPRIMFVDPSLTVRADITGRYSNRLYAYEPADTALLLDNMKKALKLLKTEL

Variants of: B1
Conditions: with muc2_human MUC2, Q02817

effect of a mutation on the interaction | Variant
disrupting interaction | C81S
